Measurements published in the supplement of paper PMC9170038.

The sequences below were run on K4 kissing-loop RNA reporter (assay: apparent KD of K4 kissing-loop reporter; higher = weaker reporter binding). Conditions: Eterna round: R107; input ligand: theophylline 20 uM.
Description: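 RNA-MaP round R107: designed RNA switches with theophylline, tryptophan, arginine or FMN aptamers are transcribed on-chip within common flanks. They are titrated with a labelled K4 kissing-loop RNA reporter in RNA-MaP buffer (100 mM Tris pH 7.5, 80 mM KCl, 4 mM MgCl2), without ligand or with the indicated ligand. Median apparent KD per design.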
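Further: bound reporter read as fluorescence of individual clusters on recovered sequencing chips by microscopy, with normalized cluster intensities fitted with a binding model.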

Sequence | apparent KD of K4 kissing-loop reporter [µM]
AGGAUCCACCAGUGAUGUUGGAAAUACUCCAAGGAUAUGACGAAAGUCAGAAGGUGGUAGACUGGACAAAGUCCAGUCGGAUCCA [FmnA 28 #SwitchBubble #K4Early] | 0.486
UUAUUAAUCGCAGAUACCAGUCCAGAAUGAAUACUAUAGUGAUGUUAUAAUAAAGGGAAGGACCCUUGGCAGCUGUAAUAUAUUU [AstrosSsTheB#3] | 0.24
UGAUACCAGACGGCCGCCACUCCUGCAGUCAAAGACUGCAAAGGAAUAUUCGUCCAGUGAUGUUGGAGGACCGGGUCUGGUAUCU [TrypBX 11 #SwitchBubble #Palindromic #StaticStem] | 0.701
GGUUAAAGCACCCGGAGUGAUGUUCCGGAUACCAGCAAACCAACUUGCCCUUGGCAGCCGUAUAGCGUCCGGUGGGCCGAGCAUA [Raarce] | 0.0976
UGGGAUGGGCGAGGAUAUGGUGAGGUGGCGGUUGUUAGUGAUGUUGGUGAUGCUAGUGAUGUUUGUCCAGAAGGCGCGGGAUUUU [BDazzled] | 0.179
UGAUACCAGACGGCCGCCACUCCCGUAAGUCAAAGACUUACGAAGAGAGUCGUCCAGUGAUGUUGGAGGACCGGGUCUGGUAUCU [FiskerMod 12 - Jieux - Exclusion - Tryptophan B] | 0.138
GAAUUGACGAGUGAUGUUCGUCCACAAUACCGAGGACCGGUACGGCCGCCACUCGAGCAAUGUGAAUAGGGUCGCGUUUUGCAGU | 0.352
ACUAUGGAGUGAUGUUCCCGCGUCAUUGAUACCAGAAUGUAUACCUUCCCUUGGCAGCAAUUCAUCGCACGUAUACUUAUACAAG [theeternabot_sameState_KL_Theo_A_31] | 0.841
UACAGGGCGAGUGAUGUUUGCUCAUGUGAUACCAGUGCCAUCCAACACCCUUGGCAGCAUGCGGGCAGUGAUGUUGUCCUUGGUU [Exclusion Theophylline A GF11] | 0.278
AGGCACGAGCAAGGAUAUCGAGUAGAGUGAUGUUCUGCCUGGGUUGGCUCGUAAGGGCCUUCCCAGCGAGAAGGUGCUCGUGCCU [#2 Same State - FMN A Attempt #15 (HarryS)] | 0.581
AGAGUCAGACAAAAGUCUGGCUCAGCCGAAGGAGCGUCCGUAAGGACAGGUAGGUCGCGGCUAUUUGAGUGAUGUUUGGGUUCCU [KL-SSArg-A20] | 0.233

Same assay, conditions: Eterna round: R107; input ligand: tryptophan 2.4 mM

Sequence | apparent KD of K4 kissing-loop reporter [µM]
AAUAAGCAUGGAAGGAGCGUAGUCCAGUGAUGUUGGAGUUAAAUACCAGUGAUGUUGGUUAUACAGGUAGGUCGCCAUAAAGCUU [Exclusion Arginine B Gf 6] | 0.0754
GAUGGUCGAGAAGGAUAUGUGACUACCAGAAGGAAAUUCAGUGAUGUUGAUUGUCGCGAGCAGGAGACAGAAGGUCUCAGACAUA [theeternabot_exclusion_KL_FMN_B_5] | 0.276
AGUAGUUGGGCGGCCGCCACUGGAACAGCUUUGCCAAAGGCAGAGCACUAGAGUGAUGUUCUAGCUAGGACCGGGUCCAACUACA [whbob_SS_Tryp_B_t17] | 1.22
CGCGCGGGUUUGAGAGGGUUCGCGCGAAGUGAGGAUAUUUAGGGAGAAAGAAGGCACUAUAAAAUAUAGUGAUGUUAUAUAAGGG [SSFMNA.H] | 0.342
GGAUUCGGCGCGGCCGCCACUUCCGGUGGCUGGUGUCAUGGUGCGCGUGAGUGAUGUUUAUGUGGGAGGACCGGGCGUUGAGUCC [whbob_Ex_Tryp_B_w45] | 0.305
GGUAGCAUGGCGGCCGCCACUUUUUUAGAUACCUACACAGAAAGCAGUGAUGUUGCUUGGUGGUAAAGGACCGGGCCAUGCUACC | 0.105
AGAAUAAUAAAUUUGGAGUGAUGUUCCGGACGAGGACCGGUACGGCCGCCACUCGAAAGCAGUCUGCGAAAGCAGACUGCAAGGA [Tesla SS Tryp A 1] | 0.645
GGAUAGGACGGAGGAUAUGGUAGUGAUGUUACCAAACUGGUUAAACAUGUCAGAAAACUGGCAUGACCAGAAGGUUGUCCUAUCG [FmnBX 27 G10+U75] | 0.0733
UAUAUAUGAUGUGAUACCAGUGAAAAGCCAGUGAUGUUGGUAGAACUGGUAUAUAAAUAACACCCUUGGCAGCACAAUCACGUAU [whbob_Ex_Theo_B_sa96] | 0.146
CUGUACAUCUCGGCCGCCACUGACAUGAGUGAUGUUCAUGUACAUGAGUGAUGUUCAUGUUCGGCCAGGACCGGGAGGUGUGCAG [KL-SSTryp-B2 #analogue #double KL] | 0.216
UAAUUUAUGUCUUUAAUUUUAUAAUCAGAUACCAGUGAUUUAUGACACCCUUGGCAGCUGUAUUGAGUGAUGUUCUUAUACUUAA [JR_Nu_ExcTheophyA_Sub022] | 0.0993
UUCUCUCAGGCACGCGAGUGAUGUUCGCGGCGAGGACCGGUACGGCCGCCACUCGCGCCUGAGAGAGGUUAUCAAAGAUAGCCUU [whbob_SS_tryp_A] | 0.208
GGUGGCUUACAAAGCUCAGUGAUGUUGAGCCGAGGACCGGUACGGCCGCCACUCGUUUGCCAUUCACUACAGUUACAAGCACUAG [theeternabot_exclusion_KL_Trp_A_2] | 0.292
UUUUAUUAAUUCUUCUAGUGAUGUUAGAUACGAGGACCGGUACGGCCGCCACUCGCUUAUUGGUUUAUAAAUUUUAUAUUAUUUA [JR_SSTryptoA_Sub016] | 0.249
CCCUCACGAGUGAUGUUCGUAGGGUACAGUCAGGAUAUCAUGCGGUUGAGAAGGGACAGGAAGGGCGGCGGCGGGUUGCUCACCG [Atera] | 0.15
CGGUACGUCGCAGGAUAUGGAUUCUGGAGUGAUGUUUCAGAGGCAUGCGGAAAACGCAUGCCGACUCCAGAAGGGCGACGUACCG | 0.376
GGAUAGGAUAGAGGAUAUGGAAAACACAGAAAUGACUUGUUGUGUUUAUCCAUAGGGAGUGAUGUUCCAGAAGGCUGUCCUAUCG [MatMod 21 - Jieux - Exclusion - FMN B] | 0.158
GUCAUGCGUUCAGGAUAUGGACCAAUUUAUAUUGCUUAUGCUGUGCCCUGUAUGGCAGUGAUGUUGCCAGAAGGGAGGGCAUGCA [Erbionvean] | 0.102
AGGAUCACGUCAGUGAUGUUGACAAGAGAUACCAGAGACGAAAGUCUCCCUUGGCAGCUCAUUGUGAUCCGUGACAAAGGUCACA [Omei KL hio A SS C v2] | 0.186
GCGCGGGUCAGUGAUGUUGACCCUCGGAGACGAGGACCGGUACGGCCGCCACUCGUCCGCGCAGCUGAGGCAAAAGCCUCGGCAA [Omei KL Tryp A SS B v5] | 0.103
AUUAAUAACUGAGGAUAUCGUUUUACUGUAGUGAUGUUACAGAAAAUGCACAUUAUAAUUUCUAUUCGAGAAGGCAGAAUAAUUA [JR_ExcFMNB_Sub013] | 0.0654
ACUAUCAUUACGCAUGGAGUGAUGUUUCAGCGAGGACCGGUACGGCCGCCACUCGUUACGUGGUUAGAGCCAAUGUUCGAGAAGC [theeternabot_exclusion_KL_Trp_A_39] | 0.52

Sequence | apparent KD of K4 kissing-loop reporter [µM]
ACACAGAGUUGCCGAGUGAUGUUCGGCUUACGAGGACCGGUACGGCCGCCACUCGUUACUCUGUGUUUUGGACACCAAGGCGUAG [Edvemaquan] | 0.169
UCCUGCUGUCAGCCACGAAAGUGGAUUGAUACCAGAGUCGAAAGACUCCCUUGGCAGCGAGUGAUGUUCGCAGCAGGUAAAUAAA [MatMod 3 - Jieux - Exclusion - Theophylline A] | 0.256
UUAUAACCCAGUGAUGUUGGGUAGCGGCCACGAGGACCGGUACGGCCGCCACUCGAGGUUUGACCAGUGAUGUUGGACUAUUUGG [Same state Tryptophan A GF 5] | 0.0471
AGUGACGAGUGAUGUUCGUGAACACUGGAUACCAGCAGUCUUAUCUGCCCUUGGCAGCCAACGGGAACCGAAUGUUAAGACCUGU [theeternabot_exclusion_KL_Theo_A_4] | 0.121
CCCGUGGGUUUGAGAGGGCUUGUGGGAAGUAAGGAUAUUUAGGGAGAAAGAAGGUACUAUAGAAUAUAGUGAUGUUAUAUAUGGG [#06 K4 FMN A Same State] | 0.17
CAUACGCAUGGAGGAUAUGAGAUUUCUCAUAUUAUUUAUUAUUCUCAGUGAUGUUGGGAUUUAAACUCAGAAGGCCAUGUGUAUG [Ex FMN B 8] | 0.199
AUAUUUAUUUAGUCACUUUUCAUAUUAUGUCAGGAUAUCGUAUUUUCGAGAAGGGACUCAUGGUAGUGAUGUUACCUAUUUCUCA [#03 K4 FMN A Exclusion] | 0.303
GCUACUGCUGAAGGAUAUAUCAAUAGAGUGAUGUUCUAUGUCGGUAGCCCGAAAGGGCUACCGACGAUAGAAGGUCAGCAGUAGC | 0.983
GCGCGCGGCGGAGGAUAUAGCCGGUGAUCCGAGAAAGUGAGUGAUGUUUACGGAGUUGAGGAUAUGUUAGAAGGCCGCCGCGCGC [abcdefghijklmnopqrstuvwx] | 0.789
UGGGUGUAGUGAUGUUAUAUAGAGAGUGAUACCAGCUUAGAGAGAAGCCCUUGGCAGCAUAGAAGAGUAUCAUUGGAGGAGGAGG [ExTheophyl.Ay] | 0.401
AGGAUCCACCAGUGAUGUUGGAAAUACUCCAAGGAUAUGACGAAAGUCAGAAGGUGGUAGACUGGACAAAGUCCAGUCGGAUCCA [FmnA 28 #SwitchBubble #K4Early] | 0.346
UUAUUAAUCGCAGAUACCAGUCCAGAAUGAAUACUAUAGUGAUGUUAUAAUAAAGGGAAGGACCCUUGGCAGCUGUAAUAUAUUU [AstrosSsTheB#3] | 0.28
UGAUACCAGACGGCCGCCACUCCUGCAGUCAAAGACUGCAAAGGAAUAUUCGUCCAGUGAUGUUGGAGGACCGGGUCUGGUAUCU [TrypBX 11 #SwitchBubble #Palindromic #StaticStem] | 0.844
GGUUAAAGCACCCGGAGUGAUGUUCCGGAUACCAGCAAACCAACUUGCCCUUGGCAGCCGUAUAGCGUCCGGUGGGCCGAGCAUA [Raarce] | 0.0927
UGGGAUGGGCGAGGAUAUGGUGAGGUGGCGGUUGUUAGUGAUGUUGGUGAUGCUAGUGAUGUUUGUCCAGAAGGCGCGGGAUUUU [BDazzled] | 0.168
UGAUACCAGACGGCCGCCACUCCCGUAAGUCAAAGACUUACGAAGAGAGUCGUCCAGUGAUGUUGGAGGACCGGGUCUGGUAUCU [FiskerMod 12 - Jieux - Exclusion - Tryptophan B] | 0.294
GAAUUGACGAGUGAUGUUCGUCCACAAUACCGAGGACCGGUACGGCCGCCACUCGAGCAAUGUGAAUAGGGUCGCGUUUUGCAGU | 0.187
ACUAUGGAGUGAUGUUCCCGCGUCAUUGAUACCAGAAUGUAUACCUUCCCUUGGCAGCAAUUCAUCGCACGUAUACUUAUACAAG [theeternabot_sameState_KL_Theo_A_31] | 0.541
UACAGGGCGAGUGAUGUUUGCUCAUGUGAUACCAGUGCCAUCCAACACCCUUGGCAGCAUGCGGGCAGUGAUGUUGUCCUUGGUU [Exclusion Theophylline A GF11] | 0.249
AGGCACGAGCAAGGAUAUCGAGUAGAGUGAUGUUCUGCCUGGGUUGGCUCGUAAGGGCCUUCCCAGCGAGAAGGUGCUCGUGCCU [#2 Same State - FMN A Attempt #15 (HarryS)] | 0.757
AGAGUCAGACAAAAGUCUGGCUCAGCCGAAGGAGCGUCCGUAAGGACAGGUAGGUCGCGGCUAUUUGAGUGAUGUUUGGGUUCCU [KL-SSArg-A20] | 0.212
